Laboratory results taken from the supplement of paper PMC10724198.
± gives the standard deviation of the averaged measurements.

Assays:
Saccharomyces cerevisiae [1] = assay: protein stability index of tFT-peptide fusion (C-terminal peptide) (PSI (0-1 scale)); higher = more stable (slower turnover)
Experimental: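 MPS profiling in S. cerevisiae of the tFT-X12 degron library: putative degron peptides plus stable controls, 12 aa, fused to the C-terminus of a sfGFP-mCherry timer. Cells are FACS-sorted into 8 mCherry/sfGFP bins and deep-sequenced. PSI runs from 0 (unstable) to 1 (stable). Backgrounds are wild type, das1Δ and doa10Δ at 30 °C, and wild type, das1Δ, cdc34-1 and cdc53-1 at 37 °C; 2-3 technical replicates each.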

Saccharomyces cerevisiae [2] = assay: as above; details: genetic background: wild type; temperature: 30 C
[3] = genetic background: cdc34-1, temperature: 37 C
[4] = genetic background: cdc53-1, temperature: 37 C
[5] = genetic background: das1 deletion, temperature: 30 C
[6] = genetic background: das1 deletion, temperature: 37 C
[7] = genetic background: doa10 deletion, temperature: 30 C
[8] = genetic background: wild type, temperature: 30 C
[9] = genetic background: wild type, temperature: 37 C
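Also: PSI is a weighted mean of sequencing reads over stability bins, variants kept only with over 10 reads, mCherry proximal and sfGFP distal, peptide attached via GGGS linker.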

Sequence | protein stability index (Saccharomyces cerevisiae [1]; [3]) | protein stability index (Saccharomyces cerevisiae [1]; [4]) | protein stability index (Saccharomyces cerevisiae [1]; [5]) | protein stability index (Saccharomyces cerevisiae [1]; [6]) | protein stability index (Saccharomyces cerevisiae [1]; [7]) | protein stability index (Saccharomyces cerevisiae [1]; [8]) | protein stability index (Saccharomyces cerevisiae [1]; [9]) | protein stability index (Saccharomyces cerevisiae [2])
FVRGWGIVFSLA | 0.571 ± 0.031 | 0.599 ± 0.023 | 0.438 ± 0.036 | 0.594 ± 0.015 | 0.225 ± 0.012 | 0.268 ± 0.016 | 0.467 ± 0.011 | 0.41 ± 0.01
LICRFLFFVCVG | 0.412 ± 0.024 | 0.451 ± 0.0053 | 0.377 ± 0.023 | 0.507 ± 0.0068 | 0.277 ± 0.011 | 0.278 ± 0.02 | 0.441 ± 0.03 | 0.394 ± 0.04
LFHSIPRLLLLK | 0.0746 ± 0.013 | 0.0485 ± 0.0081 | 0.23 ± 0.087 | 0.27 ± 0.04 | 0.627 ± 0.0064 | 0.241 ± 0.033 | 0.218 ± 0.041 | 0.367 ± 0.053
WISDRCPSVLCY | 0.0407 ± 0.0022 | 0.0838 ± 0.0009 | 0.185 ± 0.025 | 0.206 ± 0.011 | 0.143 ± 0.011 | 0.157 ± 0.028 | 0.184 ± 0.017 | 0.251 ± 0.015
VFWISRLYLASY | 0.474 ± 0.027 | 0.524 ± 0.023 | 0.442 ± 0.037 | 0.588 ± 0.012 | 0.42 ± 0.017 | 0.362 ± 0.023 | 0.52 ± 0.02 | 0.456 ± 0.02
GLPRRFLLLSVV | 0.328 ± 0.008 | 0.4613 ± 0.0015 | 0.354 ± 0.033 | 0.508 ± 0.015 | 0.11 ± 0.016 | 0.137 ± 0.016 | 0.114 ± 0.02 | 0.218 ± 0.0055
LNQRGKRKYLIM | 0.711 ± 0.058 | 0.751 ± 0.054 | 0.656 ± 0.038 | 0.723 ± 0.016 | 0.372 ± 0.012 | 0.412 ± 0.024 | 0.561 ± 0.034 | 0.452 ± 0.015
FYFMGFFFGLGM | 0.589 ± 0.021 | 0.627 ± 0.052 | 0.519 ± 0.047 | 0.617 ± 0.057 | 0.481 ± 0.016 | 0.504 ± 0.016 | 0.597 ± 0.023 | 0.516 ± 0.046
FTLFFVASVLDL | 0.48 ± 0.021 | 0.518 ± 0.01 | 0.378 ± 0.03 | 0.53241 ± 0.00048 | 0.358 ± 0.007 | 0.386 ± 0.026 | 0.511 ± 0.011 | 0.446 ± 0.0073
TVHVIVVCRELA | 0.4698 ± 0.0034 | 0.518 ± 0.015 | 0.39 ± 0.03 | 0.52 ± 0.017 | 0.201 ± 0.014 | 0.244 ± 0.025 | 0.381 ± 0.007 | 0.3271 ± 0.0022
IRSRGLLIRWLS | 0.52 ± 0.025 | 0.679 ± 0.023 | 0.616 ± 0.026 | 0.721 ± 0.011 | 0.0894 ± 0.0094 | 0.0994 ± 0.033 | 0.148 ± 0.015 | 0.182 ± 0.015
SWMFKLCIQWNV | 0.5147 ± 0.0019 | 0.567 ± 0.023 | 0.502 ± 0.011 | 0.5321 ± 0.00098 | 0.467 ± 0.029 | 0.456 ± 0.013 | 0.49 ± 0.019 | 0.467 ± 0.012
KSTLVRILVFHV | 0.559 ± 0.047 | 0.6474 ± 0.0042 | 0.458 ± 0.028 | 0.646 ± 0.044 | 0.2825 ± 0.0003 | 0.303 ± 0.0068 | 0.522 ± 0.0089 | 0.384 ± 0.071
RFFVRRVRVAVL | 0.786 ± 0.036 | 0.817 ± 0.019 | 0.553 ± 0.055 | 0.687 ± 0.0081 | 0.386 ± 0.025 | 0.382 ± 0.031 | 0.578 ± 0.048 | 0.406 ± 0.0052
FPVWTALLTVRA | 0.0896 ± 0.022 | 0.128 ± 0.015 | 0.181 ± 0.035 | 0.259 ± 0.0096 | 0.14 ± 0.024 | 0.189 ± 0.014 | 0.22 ± 0.029 | 0.262 ± 0.016
LVFSFFFLFFFM | 0.449 ± 0.053 | 0.47 ± 0.029 | 0.375 ± 0.03 | 0.46047 ± 0.00043 | 0.375 ± 0.027 | 0.287 ± 0.05 | 0.442 ± 0.11 | 0.394 ± 0.044
LGDPPCRMIVVR | 0.532 ± 0.026 | 0.58581 ± 4.2e-05 | 0.353 ± 0.038 | 0.5869 ± 0.0044 | 0.339 ± 0.011 | 0.376 ± 0.026 | 0.558 ± 0.0075 | 0.466 ± 0.033
LFFVFCLFFIYF | 0.167 ± 0.031 | 0.102 ± 0.0085 | 0.235 ± 0.024 | 0.301 ± 0.0074 | 0.322 ± 0.0061 | 0.252 ± 0.017 | 0.264 ± 0.011 | 0.247 ± 0.004
FVGLFEYILLFV | 0.186 ± 0.009 | 0.167 ± 0.029 | 0.201 ± 0.028 | 0.358 ± 0.0079 | 0.263 ± 0.0056 | 0.201 ± 0.028 | 0.348 ± 0.0072 | 0.29 ± 0.036
SDLQVMKLRSVC | 0.717 ± 0.048 | 0.742 ± 0.045 | 0.619 ± 0.025 | 0.714 ± 0.026 | 0.185 ± 0.007 | 0.191 ± 0.013 | 0.456 ± 0.021 | 0.398 ± 0.067

Sequence | protein stability index (Saccharomyces cerevisiae [1]; [3]) | protein stability index (Saccharomyces cerevisiae [1]; [4]) | protein stability index (Saccharomyces cerevisiae [1]; [5]) | protein stability index (Saccharomyces cerevisiae [1]; [6]) | protein stability index (Saccharomyces cerevisiae [1]; [7]) | protein stability index (Saccharomyces cerevisiae [1]; [8]) | protein stability index (Saccharomyces cerevisiae [1]; [9]) | protein stability index (Saccharomyces cerevisiae [2])
VSFLLYNFLSVF | 0.286 ± 0.0083 | 0.418 ± 0.0077 | 0.346 ± 0.028 | 0.4643 ± 0.0021 | 0.053 ± 0.019 | 0.0707 ± 0.012 | 0.0652 ± 0.015 | 0.101 ± 0.0017
SFLRVRSLISCS | 0.252 ± 0.026 | 0.257 ± 0.035 | 0.223 ± 0.025 | 0.404 ± 0.021 | 0.168 ± 0.0032 | 0.204 ± 0.026 | 0.348 ± 0.013 | 0.294 ± 0.022
GGIVLLVRVCGP | 0.55 ± 0.016 | 0.636 ± 0.0091 | 0.436 ± 0.019 | 0.6149 ± 0.0012 | 0.389 ± 0.0083 | 0.422 ± 0.018 | 0.601 ± 0.025 | 0.46 ± 0.011
CFFVSLFFYIDC | 0.207 ± 0.055 | 0.296 ± 0.0032 | 0.215 ± 0.021 | 0.392 ± 0.0061 | 0.191 ± 0.014 | 0.203 ± 0.042 | 0.35 ± 0.0022 | 0.323 ± 0.011
VLLFGLAFFFSF | 0.422 ± 0.058 | 0.4953 ± 0.0026 | 0.367 ± 0.053 | 0.537 ± 0.036 | 0.222 ± 0.013 | 0.241 ± 0.029 | 0.408 ± 0.033 | 0.371 ± 0.055
LSILLFVQFFPP | 0.317 ± 0.023 | 0.371 ± 0.0032 | 0.27 ± 0.021 | 0.4113 ± 0.00046 | 0.24 ± 0.0013 | 0.253 ± 0.012 | 0.384 ± 0.0082 | 0.305 ± 0.0053
WILIGVRFSCFG | 0.109 ± 0.0085 | 0.233 ± 0.069 | 0.189 ± 0.034 | 0.339 ± 0.015 | 0.159 ± 0.013 | 0.165 ± 0.021 | 0.276 ± 0.018 | 0.299 ± 0.0058
IDSEVHLWKRSA | 0.618 ± 0.046 | 0.725 ± 0.012 | 0.642 ± 0.017 | 0.719 ± 0.037 | 0.16 ± 0.016 | 0.176 ± 0.027 | 0.405 ± 0.011 | 0.336 ± 0.058
WVRIIIKLRASL | 0.444 ± 0.011 | 0.4476 ± 0.0035 | 0.34 ± 0.021 | 0.41 ± 0.0083 | 0.274 ± 0.0048 | 0.253 ± 0.011 | 0.345 ± 0.034 | 0.315 ± 0.041
ESRDRRVGIANW | 0.69 ± 0.036 | 0.743 ± 0.005 | 0.647 ± 0.0092 | 0.77 ± 0.0086 | 0.648 ± 0.014 | 0.647 ± 0.011 | 0.713 ± 0.014 | 0.7252 ± 0.0026
VVWCLLARVLLV | 0.332 ± 0.017 | 0.4 ± 0.02 | 0.306 ± 0.036 | 0.46657 ± 0.00033 | 0.1578 ± 0.00094 | 0.167 ± 0.019 | 0.243 ± 0.011 | 0.218 ± 0.026
VGVSCLVFFGVV | 0.644 ± 0.023 | 0.653 ± 0.0091 | 0.511 ± 0.017 | 0.6636 ± 0.0025 | 0.484 ± 0.026 | 0.509 ± 0.021 | 0.633 ± 0.0085 | 0.549 ± 0.11
SFVLLSSFLVFV | 0.249 ± 0.016 | 0.272 ± 0.042 | 0.262 ± 0.02 | 0.39553 ± 9.9e-06 | 0.275 ± 0.0036 | 0.241 ± 0.014 | 0.355 ± 0.0082 | 0.323 ± 0.013
NNGLLLDILIKA | 0.388 ± 0.034 | 0.399 ± 0.073 | 0.28 ± 0.044 | 0.463 ± 0.021 | 0.248 ± 0.0094 | 0.295 ± 0.028 | 0.4517 ± 0.0037 | 0.364 ± 0.059
PYVHPFRCYWVL | 0.589 ± 0.032 | 0.717 ± 0.027 | 0.621 ± 0.02 | 0.7396 ± 0.0015 | 0.128 ± 0.01 | 0.138 ± 0.0077 | 0.181 ± 0.016 | 0.193 ± 0.029
GFLWFCGVPVGW | 0.695 ± 0.026 | 0.7385 ± 0.0044 | 0.609 ± 0.017 | 0.72 ± 0.027 | 0.613 ± 0.031 | 0.613 ± 0.012 | 0.707 ± 0.018 | 0.571 ± 0.2
VLLRSRLLRRLS | 0.588 ± 0.055 | 0.6547 ± 0.0063 | 0.67 ± 0.048 | 0.72 ± 0.033 | 0.137 ± 0.013 | 0.137 ± 0.038 | 0.235 ± 0.02 | 0.211 ± 0.024
FCICRFLFIFLG | 0.44 ± 0.018 | 0.463 ± 0.012 | 0.358 ± 0.033 | 0.4917 ± 0.0036 | 0.3325 ± 0.0029 | 0.294 ± 0.029 | 0.411 ± 0.0063 | 0.336 ± 0.049
CGGVQVWRVKVV | 0.657 ± 0.023 | 0.715 ± 0.012 | 0.605 ± 0.011 | 0.722 ± 0.0077 | 0.18 ± 0.016 | 0.221 ± 0.018 | 0.401 ± 0.0066 | 0.3403 ± 0.002
